Test results from paper PMC7881195.

Experiments:
[1] = target: C. elegans PGL-3 N-terminal dimerization domain (NtDD), wild-type (C. elegans); assay: SEC-MALS; C. elegans PGL-3 NtDD wild-type and mutant, 500 µl at 1 mg/ml in HNT buffer (20 mM HEPES pH 7.5, 100 mM NaCl, 0.5 mM TCEP) on Superdex 75 10/300 GL, 0.5 ml/min, 20 °C
[2] = target: C. elegans PGL-1 N-terminal dimerization domain (NtDD), wild-type (C. elegans); assay: SEC-MALS; C. elegans PGL-1 NtDD wild-type and mutants injected at 1 mg/ml in HNT buffer (20 mM HEPES pH 7.4, 100 mM NaCl, 0.5 mM TCEP) on a SEC 650 sizing column, 0.4 ml/min

| Substance | stoichiometry N [1] | stoichiometry N [2] |
| --- | --- | --- |
| C. elegans PGL-3 N-terminal dimerization domain (NtDD), wild-type (domain or fragment) | 2 |  |
| C. elegans PGL-1 N-terminal dimerization domain (NtDD), wild-type (domain or fragment) |  | 2 |
